# Columns and labels:
# [1] = test system: Histone octamer H2A(K120C)-AF488/H2B/H3/H4 (Saccharomyces cerevisiae); test: single-molecule fluorescence of reconstituted nucleosomes; details: 100 mM KOAc, 0.02% NP40, 5% glycerol, 1 mM DTT, 5 mM ATP or ATPgS, 30 C, single-molecule buffer not …
# [2] = test system: ORC-JF646 (Origin Recognition Complex, HaloTag-JF646 on N-terminus of Orc3) (Saccharomyces cerevisiae); test: single-molecule fluorescence with optical tweezers; details: Bulk loading: 25 mM HEPES-KOH pH 7.6, 10 mM MgOAc, 100 mM KOAc, 0.02% NP40, 5% glycerol, 1 mM DTT, 5 mM ATP or ATPgS, 30 C, single-molecule buffer not …; for binding signal (% of foci in origin bin): 5 nM ORC, 5 s rapid binding, 30 min; for binding signal (% of DNA molecules with ORC): Cdc6, ATP, 30 min stable binding
# [3] = molecular target: H3-H4 tetramer of S. cerevisiae (on DNA: H3-H4 tetrasome) (S. cerevisiae) (UniProt P61830); test: single-molecule photobleaching step counting, fit of a probability model; H2A^AF488 foci at the chromatinized ARS1 origin, imaged immediately after introduction into the flow cell; p_label fixed at 0.81
# [4] = molecular target: H3-H4 tetramer of S. cerevisiae (on DNA: H3-H4 tetrasome) (S. cerevisiae) (UniProt P61830); test: single-molecule photobleaching step counting, fit of a probability model; H2A^AF488 foci, chromatinized ARS1 origin, after 30 min bulk incubation in buffer only
# [5] = molecular target: H3-H4 tetramer of S. cerevisiae (on DNA: H3-H4 tetrasome) (S. cerevisiae) (UniProt P61830); test: single-molecule photobleaching step counting, fit of a probability model; H2A^AF488 foci, chromatinized ARS1 origin, after 30 min bulk incubation with ORC, Cdc6 and MCM^JF646/Cdt1
# [6] = molecular target: H3-H4 tetramer of S. cerevisiae (on DNA: H3-H4 tetrasome) (S. cerevisiae) (UniProt P61830); test: single-molecule photobleaching step counting, fit of a probability model; H2A^AF488 foci, chromatinized mutated origin, after 30 min bulk incubation with ORC, Cdc6 and MCM^JF646/Cdt1
# [7] = molecular target: H3-H4 tetramer of S. cerevisiae (on DNA: H3-H4 tetrasome) (S. cerevisiae) (UniProt P61830); test: single-molecule photobleaching step counting, fit of a probability model; H2A^AF488 foci, chromatinized mutated origin, after 30 min bulk incubation with ORC^JF646 and Cdc6
# [8] = molecular target: H3-H4 tetramer of S. cerevisiae (on DNA: H3-H4 tetrasome) (S. cerevisiae) (UniProt P61830); test: single-molecule photobleaching step counting, fit of a probability model; H2A^AF488 foci, chromatinized ARS1 origin, after 30 min bulk incubation with ORC^JF646 and Cdc6
substance,measurement,setting,value
"10.4 kbp DNA, ARS1 origin, bare",binding signal (% of H2A foci in origin bin),"[1]; after 30 min with ORC-JF646 and Cdc6, Bulk loading: 25 mM HEPES-KOH pH 7.6, 10 mM MgOAc",49
same,binding signal (% of H2A foci in origin bin),"[1]; salt-gradient dialysis, after 30 min in buffer, chromatinized form is N2, Bulk loading: 25 mM HEPES-KOH pH 7.6, 10 mM MgOAc",80
same,binding signal (% of foci in origin bin),[2],30
same,binding signal (% of DNA molecules with ORC),[2]; 61% of foci in origin bin,79
"10.4 kbp DNA, ARS1 origin, chromatinized (two nucleosomes)",binding signal (% of foci in origin bin),[2]; nucleosomes,39
same,binding signal (% of DNA molecules with ORC),"[2]; nucleosomes, 51% of foci in origin bin",41
"H2A^AF488-H2B dimer (S. cerevisiae H2A K120C labelled with AF488, with H2B) (from UniProt P04911 2-132; P02293 5-131) (complex)",ph2a (probability of H2A-H2B dimer association with the H3-H4 tetrasome),[3],0.77
same,ph2a (probability of H2A-H2B dimer association with the H3-H4 tetrasome),[4],0.73
same,ph2a (probability of H2A-H2B dimer association with the H3-H4 tetrasome),[5],0.84
same,ph2a (probability of H2A-H2B dimer association with the H3-H4 tetrasome),[6],0.91
same,ph2a (probability of H2A-H2B dimer association with the H3-H4 tetrasome),[7],0.6
same,ph2a (probability of H2A-H2B dimer association with the H3-H4 tetrasome),[8],0.81

# Source: publication PMC10593741
